From patent US20230331827A1, “POTASSIUM CHANNEL INHIBITORS” (priority 2017, published 2023) come the findings set out here.

One experiment has as its target T1, huKv1.3 (Homo sapiens, UniProt P22001).
T1 construct: host or cells: CHO
As to the kind of experiment: QPatch automated whole-cell patch-clamp, CHO cells stably expressing huKv1.3 (Example 8). The experiment is classed as cell-based. Here is the method: (§1) Knottin Kv 1.3 and ASIC1a blockers expressed in the KnotBody format (see examples 6 and 7) were tested for their ability to inhibit the function of the ion channel targets. The effect of these KnotBodies on cells expressing the human Kv 1.3 (huKv1.3) or human ASIC1a channels was assessed using QPatch automated whole-cell patch-clamp electrophysiology (Sophion).
For the testing of Kv1.3, CHO cells stably expressing huKv1.3 (Charles River Lab) were analysed using the QPatch electrophysiology assay in the presence or absence of the KnotBody fusions or the antibody isotypes (negative) controls. Internal and external physiological solutions were freshly prepared prior to the assay. The extracellular solution contained 145 mM NaCl, 4 mM KCl, 2 mM CaCl2, 1 mM MgCl2, 10 mM HEPES and 10 mM glucose; the pH was adjusted to 7.4 with NaOH; the osmolarity was ~ 305 mOsm/L. The intracellular solution contained: KF (120 mM), KCl (20 mM), HEPES (10 mM) and EGTA (10 mM); the pH was adjusted to 7.2 with KOH; osmolarity was ~ 320 mOsm/L.
A series of depolarising voltage (channel activating) pulses were used to monitor the channel currents upon adding control (extracellular solution) to define a control baseline of current activity. To these measured control currents ascending concentrations of KnotBodies or parental antibody isotypes (control molecules) were applied to the external bathing solution (2.2 µM - 0.5 nM, diluted in the extracellular solution). KnotBodies KB_A12 and KB_A07 (EETI-II fusions) were used as isotype controls for the testing. From a holding voltage of -80 mV a depolarising, activating voltage pulses of +30 or +80 mV were applied for 300 ms, every 5 or 10 seconds. The elicited, maximum outward current values measured during the activating step for each solution exchange period were averaged (n = 3 - 8 for each concentration applied) and plotted as concentration-response curves. KB_A07_ShK, KB_A12_ShK and KB_A07_Kaliotoxin (KTX) fusion proteins all inhibited the huKv1.3 currents in a concentration dependent manner with IC50S of approximately 20 nM, 40 nM and 900 nM respectively.

For a further experiment, the target named is T2, huASIC1a (Homo sapiens, UniProt P78348).
T2 construct: host or cells: HEK293
T2 sequence (P78348 1-528): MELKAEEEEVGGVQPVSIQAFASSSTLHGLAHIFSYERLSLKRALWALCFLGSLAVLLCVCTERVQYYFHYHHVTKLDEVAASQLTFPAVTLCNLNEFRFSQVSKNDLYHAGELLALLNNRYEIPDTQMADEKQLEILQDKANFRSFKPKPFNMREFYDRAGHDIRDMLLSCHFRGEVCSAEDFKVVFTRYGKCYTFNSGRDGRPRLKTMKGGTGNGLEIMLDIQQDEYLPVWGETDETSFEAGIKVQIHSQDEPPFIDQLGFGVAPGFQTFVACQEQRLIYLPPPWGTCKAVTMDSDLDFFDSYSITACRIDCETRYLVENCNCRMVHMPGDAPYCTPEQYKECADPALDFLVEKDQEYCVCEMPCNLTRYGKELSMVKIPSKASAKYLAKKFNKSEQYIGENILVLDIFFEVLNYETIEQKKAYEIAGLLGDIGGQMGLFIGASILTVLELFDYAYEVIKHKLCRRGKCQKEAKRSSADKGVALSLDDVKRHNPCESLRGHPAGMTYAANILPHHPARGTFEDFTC
As to the kind of experiment: QPatch electrophysiology, HEK293 cells stably expressing huASIC1a. It is filed as cell-based. The settings on record: ASIC1a current at pH 6.0 after 15-20 minutes KnotBody pre-incubation, 2.3-6.6 µM. Here is the method:
as §1
To functionally assess the ASIC1a KnotBodies, HEK293 cells stably expressing huASIC1a (Sophion) were analysed using a QPatch electrophysiology assay in the presence or absence of the KnotBody fusions (using KB_A12 as a recipient and replacing the original EETI-II donor as shown in Table 8). The “parental” KB_A12 with the EETI-II donor was used as a negative control. Internal and external physiological solutions were freshly prepared prior to the assay. The extracellular solution contained 145 mM NaCl, 4 mM KCl, 2 mM CaCl2, 1 mM MgCl2, 10 mM HEPES and 10 mM glucose; the pH was adjusted to 7.4 with NaOH (for control, resting-state pH) or 6.0 with MES (for acidic, activating-state pH); the osmolarity was ~ 305 mOsm/L. The intracellular solution contained: CsF (140 mM), HEPES (10 mM), NaCl (10 mM) and EGTA/CsOH (1 mM/5 mM); the pH was adjusted to 7.3 with CsOH; osmolarity was ~ 320 mOsm/L.
Throughout ASIC 1a recordings the recording cell membrane voltage was clamped at -60 mV. ASIC1a baseline control currents were elicited by applying external solution at activating pH 6.0 for 3000 ms. This activating pH application was repeated three further times, giving four baseline control ASIC1a currents. The recording cells were then pre-incubated with KnotBody diluted in external solution at pH 7.4 for 15-20 minutes. Following this KnotBody pre-incubation the same concentration of KnotBody in external solution at activating pH 6.0 was applied to the cell recording.
At the end of each KnotBody incubation and subsequent ASIC1a current activation, a full blocking concentration (300 nM) of the ASIC1a knottin inhibitor PcTx1 (positive control) was perfused onto the cell recording and a final activating pH 6.0 external solution was applied. The percentage remaining signal between activating pH 6.0 baseline (i.e. pre-KnotBody) and post-KnotBody incubation was determined.

The target in a further experiment is LOX-1 (Homo sapiens, UniProt P78380). Kind of experiment: Phage TRF binding assay on LOX-1. The note with it: phage displayed, FIG. 19. As for the experimental part:
In order to test the functionality of these adhiron-antibody fusions, monoclonal phage prepared from each clone was assessed for binding to LOX-1 in a TRF binding assay. In this assay, LOX-1 (immobilised directly on Maxisorp™ plates) binding of phage displaying adhiron-antibody fusion was detected using a mouse anti-M13 antibody (GE Healthcare) followed by europium conjugated anti-mouse antibody (Perkin Elmer). Parent KnotBodies KB_A07 and KB_A12 (EETI-II fusions) were included as controls. Proteins cMET-FC, GAS6-CD4, FGFR4-CD4, UPA and B-gal were used to examine non-specific binding.

[1] abbreviates: Kv1.3 channels, IgG KnotBody, Table 11A.

T1 sequence (P22001 whole entry): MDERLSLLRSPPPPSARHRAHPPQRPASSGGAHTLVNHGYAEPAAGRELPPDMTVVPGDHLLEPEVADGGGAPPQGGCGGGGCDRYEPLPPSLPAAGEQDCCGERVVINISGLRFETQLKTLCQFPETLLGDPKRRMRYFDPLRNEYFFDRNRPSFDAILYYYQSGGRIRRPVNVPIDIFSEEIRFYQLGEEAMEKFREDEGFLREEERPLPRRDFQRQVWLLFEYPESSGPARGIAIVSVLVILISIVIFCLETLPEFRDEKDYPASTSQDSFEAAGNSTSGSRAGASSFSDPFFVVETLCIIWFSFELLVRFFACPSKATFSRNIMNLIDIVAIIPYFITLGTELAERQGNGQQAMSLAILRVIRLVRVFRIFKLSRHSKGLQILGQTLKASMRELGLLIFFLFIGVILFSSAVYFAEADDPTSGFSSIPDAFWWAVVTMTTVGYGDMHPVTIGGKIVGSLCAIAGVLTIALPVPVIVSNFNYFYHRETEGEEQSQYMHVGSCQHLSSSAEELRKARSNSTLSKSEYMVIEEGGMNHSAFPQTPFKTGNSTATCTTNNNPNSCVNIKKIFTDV

B1: KB_A12_ShK: ShK toxin in VL CDR2 of KB_A12, IgG1 (antibody, V domains shown)
VH: EVQLVESGGGLVRPGGSLRLSCAASGFTFSSYAMSWVRQAPGKGLEWVSAISGSGGSTYYADSVKGRFTISRDNTKNSLYLQMTSLRADDTAFYYCVKDFGPGYGTGWFDYWGPGTLVTVSS
VL: QSVLTQPPSVSEAPRQRVTITCSGSSSNIGNNAVNWYQQLPGKAPKLLIYAAGRRSCIDTIPKSRCTAFQCKHSMKYRLSFCRKTCGTCANSGVSDRFSAAKSGTSASLAINGLRSEDEADYYCAAWDDSLNGYVFGTGTKLTVLG
In the case of B1, the concentration for half-maximal inhibition (IC50) in the experiment with huKv1.3 (setting [1]) is 20 nM; in the experiment with huKv1.3 (huKv1.3 currents, text of Example 8, approximately), ~40 nM.

B2: KB_A12: EETI-II knottin fused into VL CDR2, D1A12 VH; parental KnotBody, isotype control (antibody, V domains shown)
VH: B1 VH
VL: QSVLTQPPSVSEAPRQRVTITCSGSSSNIGNNAVNWYQQLPGKAPKLLIYAAGRCPRILMRCKQDSDCLAGCVCGPNGFCGANSGVSDRFSAAKSGTSASLAINGLRSEDEADYYCAAWDDSLNGYVFGTGTKLTVLGQP
B2: the “% current remaining” value with huASIC1a is 67.4%. Moreover, the half-inhibitory concentration (IC50) with huKv1.3 (setting [1]) is > 10000 nM. In the experiment with LOX-1, the “binding to LOX-1” value is reported as “no detectable binding to the LOX-1”.

B3: KB_A07: EETI-II knottin fused into VL CDR2, D1A12 VH; parental KnotBody, isotype control (antibody, V domains shown)
VH: B1 VH
VL: DIQMTQSPSSLSASVGDRVTITCRASQSISSYLNWYQQKPGKAPKLLIYAAGVCPRILMRCKQDSDCLAGCVCGPNGFCGSRSGVPSRFSGSGSGTDFTLTISSLQPEDFATYYCQQGASPPYTFGQGTKVEIKRT
For the molecule B3, the “% current remaining” value in the experiment with huASIC1a is listed as 70.9%. For the same molecule, the IC50 with huKv1.3 (setting [1]) is > 10000 nM. Moreover, the “binding to LOX-1” value in the experiment with LOX-1 is listed as “no detectable binding to the LOX-1”.
